Results from US20200385730, “Aptamers Against Clostridium Difficile” (Biovector, Inc., published 2020).

What was measured:
[1] = target: T1, CotEC chitinase (rCotEC P381-F712) (Clostridium difficile); test: BLI; conditions: tags: C-terminal His
[2] = target: T2, CotA (Clostridium difficile, UniProt Q186G8 SEQ:1-305); test: SPR; CotA immobilized on hydrogel chip by EDC, aptamer injected; conditions: tags: His6
T2 sequence: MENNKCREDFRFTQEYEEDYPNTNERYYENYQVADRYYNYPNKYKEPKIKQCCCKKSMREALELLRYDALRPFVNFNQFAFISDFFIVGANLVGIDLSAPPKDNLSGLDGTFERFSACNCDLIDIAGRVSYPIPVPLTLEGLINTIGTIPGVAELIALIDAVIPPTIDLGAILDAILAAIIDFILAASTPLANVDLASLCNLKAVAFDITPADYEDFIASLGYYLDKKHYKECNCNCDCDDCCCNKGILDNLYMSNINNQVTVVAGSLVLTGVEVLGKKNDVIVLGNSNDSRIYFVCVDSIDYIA
Experimental: For CotA C1, the protein was immobilized on a hydrogel chip with EDC-mediated conjugation between primary amines on the protein (side chains on residues) and carboxylic acid groups on the surface of the chip. A protein of similar size was immobilized in the same manner as a negative control. […] For CdeC D1, the protein was received as aggregated, insoluble balls of protein. The binding assay was performed by incubating fluorescently labeled aptamers (FAM) with the protein, and then spinning the tubes down in a microcentrifuge to remove unbound. The pellet was resuspended in selection buffer and spun down again. Bound aptamers were eluted by adding 6 M urea, and spinning again, retaining the supernatant. The aptamers were cleaned up with PCR cleanup columns and the fluorescence was read on a Tecan Sapphire II fluorometer. Excitation was at 497 nm, and emission was at 515 nm. The amount of fluorescence measured in the eluant was divided by the total amount of fluorescence of all fractions.
(§1) For aptamer CdeC D1 (SEQ ID No 6), the KD was not determined due to protein aggregation.

[3] = target: CdeM (Clostridium difficile); test: BLI; conditions: tags: His
[4] = target: T2, CotA; test: BLI; slower association, little dissociation; conditions: tags: His6
Experimental: The refined pools (characterized in FIGS. 21-25) were taken forwards for monoclonal isolation. All aptamers were purified (after elution) and resuspended and stored in water. Before use in selections or binding assays, aptamers were diluted in a final concentration 1× buffer. Individual aptamer clones were isolated and screened by BLI using aptamer concentrations of 0.5 μM, 1 μM, or 2 μM. Again, the target was immobilized onto a Biolayer Interferometry sensor probe and then incubated with each aptamer clone. The results are presented below (FIGS. 26-30).

[5] = target: T1, CotEC chitinase (rCotEC P381-F712); test: SPR; conditions: tags: C-terminal His
Experimental: (§2) For CotE D2, CotE H2 and CotEC chitinase, aptamers were spotted on a gold surface at a concentration of 5 μM in PBS at a volume of approximately 10 nL in triplicate. Negative aptamers of the same length as the positive aptamers were spotted in the same manner, also in triplicate. Protein was then injected over the chip at a volume of 200 μL, with a flow rate of 50 μL/min in a Horiba (OpenPlex) surface plasmon resonance imaging (SPRi) instrument. Resonance due to binding was obtained by subtracting total resonance on the negative sequences from total resonance on the positive sequences. Disassociation values were computed with the following equation: dx/dt˜−kd*x, wherein dx/dt is the derivative of resonance values as a function of time and x is the resonance value for any given time point. Association values were computed with the following equation: dx/dt˜ka*c*Rmax−(ka*c+kd)*x, where x is the resonance due to binding at specific time points, c is the concentration of injectant, and Rmax is the maximum resonance observed.
as §1

[6] = target: CotE (rCotE N281-F712) (Clostridium difficile); test: SPR; conditions: tags: C-terminal His
Experimental: as §2, §1

B1: Chitinase_H11 (ssDNA)
DNA: CCAGTGTAGACTACTCAATGCCTTGTAAGAAGAACAATCGCCGCTTCGCCTGAATAGGTTCGTACTATCCACAGGTCAACC
- binding result [1]: binds

B2: Chitinase_D10 (ssDNA)
DNA: CCAGTGTAGACTACTCAATGCCCTATTAGCTGTATCGATCCGTTTAGTCGCTCCTCCGATAGTACTATCCACAGGTCAACC
- binding result [1]: binds

B3: CotA_C1 (ssDNA)
DNA: CCAGTGTAGACTACTCAATGCCGTGGACTGGTCGGGTTTGGATTCGGCAGATGAATCACTAGTACTATCCACAGGTCAACC
- Kd [2]: 6.87 nM

B4: CdeM_E2 (ssDNA)
DNA: CCAGTGTAGACTACTCAATGCCTTCCATTCACCTACCGAGCTAAGCGTTCGACTTAGGTCTGTACTATCCACAGGTCAACC
- binding result [3]: binds

B5: CotA_B1 (ssDNA)
DNA: CCAGTGTAGACTACTCAATGCTTAAGTTCTGGGGACACGTGATGAACGCATTTAATGGGGCGTACTATCCACAGGTCAACC
- binding result [4]: binds

B6: Chitinase_D11 (ssDNA)
DNA: CCAGTGTAGACTACTCAATGCCTGGTAAATCGATGACCGCTGCCTCGCCTGAGTAATCATCGTACTATCCACAGGTCAACC
- Kd [5]: 254 nM

B7: CotE_D2 (ssDNA)
DNA: CCAGTGTAGACTACTCAATGCTCGACATTTCCGCCCCGACGGCCCTCCTAGTGATGGGGAGAGTACTATCCACAGGTCAACC
- Kd [6]: > 250 nM
